Numbering of substitutions follows the chain as printed. Names may count otherwise.
T1: EsCas13d, nuclease-dead (Eubacterium siraeum, UniProt B0MS50, R295A;H300A;R849A;H854A)
T1 sequence: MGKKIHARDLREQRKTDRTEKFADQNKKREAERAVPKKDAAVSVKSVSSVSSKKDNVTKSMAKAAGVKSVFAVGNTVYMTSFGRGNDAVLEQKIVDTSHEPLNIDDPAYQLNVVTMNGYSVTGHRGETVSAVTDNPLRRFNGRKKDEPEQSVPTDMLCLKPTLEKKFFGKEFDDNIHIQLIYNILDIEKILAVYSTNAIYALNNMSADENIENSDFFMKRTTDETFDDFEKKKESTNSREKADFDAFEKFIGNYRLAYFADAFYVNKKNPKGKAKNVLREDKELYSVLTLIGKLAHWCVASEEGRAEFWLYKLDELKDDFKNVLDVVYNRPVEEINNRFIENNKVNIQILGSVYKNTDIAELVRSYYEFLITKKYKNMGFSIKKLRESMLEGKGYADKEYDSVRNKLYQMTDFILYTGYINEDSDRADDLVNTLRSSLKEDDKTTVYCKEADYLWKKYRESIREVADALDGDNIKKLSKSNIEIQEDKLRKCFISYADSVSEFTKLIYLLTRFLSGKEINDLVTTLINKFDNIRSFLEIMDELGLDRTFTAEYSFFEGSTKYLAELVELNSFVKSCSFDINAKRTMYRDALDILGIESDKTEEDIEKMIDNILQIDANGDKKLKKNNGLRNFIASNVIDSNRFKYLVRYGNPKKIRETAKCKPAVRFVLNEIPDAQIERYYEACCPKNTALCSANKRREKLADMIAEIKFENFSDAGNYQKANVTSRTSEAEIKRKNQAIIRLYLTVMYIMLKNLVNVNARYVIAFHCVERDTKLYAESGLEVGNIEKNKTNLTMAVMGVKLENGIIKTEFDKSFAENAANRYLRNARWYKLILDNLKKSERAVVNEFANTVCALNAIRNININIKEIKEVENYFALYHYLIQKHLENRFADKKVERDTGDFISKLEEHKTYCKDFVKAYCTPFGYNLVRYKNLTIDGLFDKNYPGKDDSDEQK

B1: target 1 MT 5'PFS UCA 3'PFS AGG (mixed)
RNA 1: CACCCGUGCAAAAAUGCAGGGGUCUAAAACUGAGCGGAUAACCUCUCUAUGG
RNA 2: GGGAAUGGAUCCACAUCUACGAAUUCUCACCAUAGAGAGGUUAUCCGCUCAAGGAGAUCGGAAGAGCACACGU
B2: target 1 MT 5'PFS ACG 3'PFS CGA (mixed)
RNA 1: B1 RNA 1
RNA 2: B1 RNA 2 with U27A, A29G, A52C, G54A
B3: target 1 MT 5'PFS GGG 3'PFS CUG (mixed)
RNA 1: B1 RNA 1
RNA 2: B1 RNA 2 with U27G, C28G, A29G, A52C, G53U
B4: target 1 MT 5'PFS CUG 3'PFS AAA (mixed)
RNA 1: B1 RNA 1
RNA 2: B1 RNA 2 with U27C, C28U, A29G, G53A, G54A
B5: target 1 complement block 10-13 (mixed)
RNA 1: B1 RNA 1
RNA 2: B1 RNA 2 with U27G, C28U, G39C, G40C, U41A, U42A, A52C, G53C
B6: target 1 MT 5'PFS GCG 3'PFS AUG (mixed)
RNA 1: B1 RNA 1
RNA 2: B1 RNA 2 with U27G, A29G, G53U
B7: target 1 MT 5'PFS GCG 3'PFS AUU (mixed)
RNA 1: B1 RNA 1
RNA 2: B1 RNA 2 with U27G, A29G, G53U, G54U
B8: target 1 MT 5'PFS UCG 3'PFS UUG (mixed)
RNA 1: B1 RNA 1
RNA 2: B1 RNA 2 with A29G, A52U, G53U
B9: target 1 MT 5'PFS ACU 3'PFS UAU (mixed)
RNA 1: B1 RNA 1
RNA 2: B1 RNA 2 with U27A, A29U, A52U, G53A, G54U
B10: target 1 MT 5'PFS GAG 3'PFS CCG (mixed)
RNA 1: B1 RNA 1
RNA 2: B1 RNA 2 with U27G, C28A, A29G, A52C, G53C
B11: target 1 MT 5'PFS CAC 3'PFS AUA (mixed)
RNA 1: B1 RNA 1
RNA 2: B1 RNA 2 with U27C, C28A, A29C, G53U, G54A
B12: target 1 MT 5'PFS UCA 3'PFS AGA (mixed)
RNA 1: B1 RNA 1
RNA 2: B1 RNA 2 with G54A
B13: target 1 MT 5'PFS AAG 3'PFS UAU (mixed)
RNA 1: B1 RNA 1
RNA 2: B1 RNA 2 with U27A, C28A, A29G, A52U, G53A, G54U
B14: target 1 MT 5'PFS CCC 3'PFS CUG (mixed)
RNA 1: B1 RNA 1
RNA 2: B1 RNA 2 with U27C, A29C, A52C, G53U
B15: target 1 MT 5'PFS AGC 3'PFS CUU (mixed)
RNA 1: B1 RNA 1
RNA 2: B1 RNA 2 with U27A, C28G, A29C, A52C, G53U, G54U
B16: target 1 MT 5'PFS CCC 3'PFS CUA (mixed)
RNA 1: B1 RNA 1
RNA 2: B1 RNA 2 with U27C, A29C, A52C, G53U, G54A
B17: target 1 MT 5'PFS AAC 3'PFS CGG (mixed)
RNA 1: B1 RNA 1
RNA 2: B1 RNA 2 with U27A, C28A, A29C, A52C
B18: target 1 MT 5'PFS UCG 3'PFS UUC (mixed)
RNA 1: B1 RNA 1
RNA 2: B1 RNA 2 with A29G, A52U, G53U, G54C
B19: target 1 MT 5'PFS GUC 3'PFS AAC (mixed)
RNA 1: B1 RNA 1
RNA 2: B1 RNA 2 with U27G, C28U, A29C, G53A, G54C
B20: target 1 insC 3' of 19,insA 3' of 12 (mixed)
RNA 1: B1 RNA 1
RNA 2: GGGAAUGGAUCCACAUCUACGAAUUCGUACCAUCAGAGAGGAUUAUCCGCUCACCGAGAUCGGAAGAGCACACGU
B21: target 1 MT 5'PFS UGC 3'PFS UAA (mixed)
RNA 1: B1 RNA 1
RNA 2: B1 RNA 2 with C28G, A29C, A52U, G53A, G54A
B22: target 1 MT 5'PFS GCG 3'PFS AUA (mixed)
RNA 1: B1 RNA 1
RNA 2: B1 RNA 2 with U27G, A29G, G53U, G54A
B23: target 1 MT 5'PFS CUG 3'PFS CGG (mixed)
RNA 1: B1 RNA 1
RNA 2: B1 RNA 2 with U27C, C28U, A29G, A52C
B24: target 1 MT 5'PFS UAU 3'PFS AUA (mixed)
RNA 1: B1 RNA 1
RNA 2: B1 RNA 2 with C28A, A29U, G53U, G54A
B25: target 1 MT 5'PFS UGC 3'PFS UAG (mixed)
RNA 1: B1 RNA 1
RNA 2: B1 RNA 2 with C28G, A29C, A52U, G53A
B26: target 1 MT 5'PFS CCU 3'PFS CCG (mixed)
RNA 1: B1 RNA 1
RNA 2: B1 RNA 2 with U27C, A29U, A52C, G53C
B27: target 1 MT 5'PFS UCG 3'PFS UCU (mixed)
RNA 1: B1 RNA 1
RNA 2: B1 RNA 2 with A29G, A52U, G53C, G54U
B28: target 1 MT 5'PFS UCG 3'PFS CUC (mixed)
RNA 1: B1 RNA 1
RNA 2: B1 RNA 2 with A29G, A52C, G53U, G54C
B29: target 1 MT 5'PFS UCG 3'PFS CUG (mixed)
RNA 1: B1 RNA 1
RNA 2: B1 RNA 2 with A29G, A52C, G53U
B30: target 1 MT 5'PFS GGG 3'PFS CUA (mixed)
RNA 1: B1 RNA 1
RNA 2: B1 RNA 2 with U27G, C28G, A29G, A52C, G53U, G54A
B31: target 1 MT 5'PFS GCG 3'PFS AUC (mixed)
RNA 1: B1 RNA 1
RNA 2: B1 RNA 2 with U27G, A29G, G53U, G54C
B32: target 1 MT 5'PFS UAU 3'PFS AUC (mixed)
RNA 1: B1 RNA 1
RNA 2: B1 RNA 2 with C28A, A29U, G53U, G54C
B33: target 1 MT 5'PFS GGG 3'PFS CUC (mixed)
RNA 1: B1 RNA 1
RNA 2: B1 RNA 2 with U27G, C28G, A29G, A52C, G53U, G54C
B34: target 1 insC 3' of 11,insU 3' of 5 (mixed)
RNA 1: B1 RNA 1
RNA 2: GGGAAUGGAUCCACAUCUACGAAUUCGUACCAUAGAGAGGUCUAUCCGUCUCACCGAGAUCGGAAGAGCACACGU
B35: target 1 MT 5'PFS CAC 3'PFS AUC (mixed)
RNA 1: B1 RNA 1
RNA 2: B1 RNA 2 with U27C, C28A, A29C, G53U, G54C
B36: target 1 MT 5'PFS UUU 3'PFS UCC (mixed)
RNA 1: B1 RNA 1
RNA 2: B1 RNA 2 with C28U, A29U, A52U, G53C, G54C
B37: target 1 MT 5'PFS CUG 3'PFS CGU (mixed)
RNA 1: B1 RNA 1
RNA 2: B1 RNA 2 with U27C, C28U, A29G, A52C, G54U
B38: target 1 G13A,C22A (mixed)
RNA 1: B1 RNA 1
RNA 2: B1 RNA 2 with U27G, C28U, C30A, G39A, A52C, G53C
B39: target 1 MT 5'PFS UCG 3'PFS UUA (mixed)
RNA 1: B1 RNA 1
RNA 2: B1 RNA 2 with A29G, A52U, G53U, G54A

Target: T1, EsCas13d, nuclease-dead
Assay: crRNA (strand 1, pre-loaded); Mg2+; 40 mM Tris-HCl pH 7.5, 150 mM NaCl, 6 mM MgCl2, 1 mM DTT, 0.1% Tween-20, 0.2 mg/ml BSA; 25 C; 10 min per concentration, then washed
Details: tags: His6-TwinStrep-SUMO cleaved; N-terminal SNAP kept (SNAP-Surface 488); label: 3' end held by stalled T7 RNA polymerase

Binder	Kd [nM]
B1	~100
B2	28 ± 12
B3	14.7 ± 2.1
B4	10.6 ± 2.7
B5	99 ± 30
B6	30.5 ± 8
B7	20 ± 7.5
B8	43 ± 8
B9	~72.5
B10	~25
B11	~17
B12	20.5 ± 8.5
B13	18.5 ± 5
B14	~9.5
B15	9.35 ± 3.2
B16	~17
B17	31 ± 7
B18	37 ± 12.5
B19	36.5 ± 17.5
B20	69 ± 9

Binder	Kd [nM]
B21	16 ± 4.5
B22	16.2 ± 2.5
B23	18.6 ± 3.55
B24	43 ± 15.5
B25	15.9 ± 4.1
B26	16.5 ± 7.5
B27	36 ± 10.5
B28	45.5 ± 20
B29	57.5 ± 23
B30	25.1 ± 5.2
B31	22 ± 6
B32	~65
B33	23 ± 7
B34	15 ± 0.8
B35	~28.5
B36	90 ± 45
B37	21 ± 6.5
B38	9.6 ± 0.5
B39	31.5 ± 7.5
